The results in this text go back to the RNAGym collection of RNA variant scans (doi:10.1073/pnas.2313332121).

This sample holds only a part of the variants without activity.

First the molecules themselves.
B1: TPR 5TU (parent)
chain: GGAUCUUCUCGAUCUAACAAAAAAGACAAAUCUGCCACAAAGCUUGAGAGCAUCUUCGGAUGCAGAGGCGGCAGCCUUCGGUGGCGCGAUAGCGCCAACGUUCUCAACUAUGACACGCAAAACGCGUGCUCCGUUGAAUGGAGUUUAUCAUG

In the data set the parent is B1. Kind of data set: polymerase ribozyme fitness, log enrichment relative to wild type (log ratio); higher = more active; in vitro selection for triplet polymerase activity. A digest of the protocol:
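After PCR construction and transcription, each subunit's mutant library from a heterodimeric triplet polymerase ribozyme was annealed with a biotinylated primer, the partner subunit and triplets. Incubation was frozen, at −7 °C, and extended constructs were gel-excised, bound to streptavidin beads and amplified by RT-PCR, in one selection round done in triplicate. Fitness is the logarithm of a genotype's enrichment divided by that of the wild type, from inverse-variance-weighted replicate averages of Illumina-sequenced inputs and outputs. The base of the logarithm is 2, and genotypes needed ≥10 input reads and ≥1 read per output.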
Turning to GGAUCUUCUCGAUCUAACAAAAAAGACAAAUCUGCCACAAAGCUUGAGAGCAUCUUCGGAUGCAGAGGCGGCAGCCUUCGGUGGCGUGAUAGCGCCAACGUUCUCAACUAUGACACGGAAAACGCGUGCUCCGUUGAAUGGAGUUUAUCAUG [C87U C118G], the “polymerase ribozyme fitness (log ratio)” value is -1.33.
Consider GGAUCUUGUCGAUCUAACAAAAAAGACAAAUCUGCCACAAAGCUUGAGAGCAUCUUCGGAUGCAGAGGCGGCAGCCUUCGGAGGAGCGAUUGCGCUAACGUUCUCAACUAUGACACCCAAAACGCGUGCUCCGUUGAAUGGAGUUUAUCAUG [C8G U82A C85A A91U C96U G117C], for which the “polymerase ribozyme fitness (log ratio)” value is at most -4.2.
In the case of GGAUCUUCUCGAUCUAACAAAAAAUACAAAUCUGCCACAAAGCUUGAGAGCAUCUUCGGAUGCAGAGGCGGCAGCCUUCGGUAGCGCGAUAGCGACAACGUUCUCAACUAUGACACGCAAAACGCGUGCUCCGUUGAUCGGAGUUUAUCAUG [G25U G83A C95A A138U U139C], the “polymerase ribozyme fitness (log ratio)” value was at most -4.2.
Turning to GGAUCUUCUCGAUCUAACAAAAAAGCCAAAUCUCCCACAAAGCUUGAGAGCCUCUUCGGAUGCAGAGGCGGCAGACUUCCGUGGCGCGAUAGCGCCAACGUUCUCAACUAUGACACGCAAAACGCGUGCUCCGUUGAAUGGAGUUUAUCAUG [A26C G34C A52C C75A G80C], the “polymerase ribozyme fitness (log ratio)” value was at most -4.2.
With GGAUCUUCUCGAUCUAACACAAAAGACAAAUCUGCCACAAAGCUUGAGAGCUUCUUCGGAUGCAGAGGCGGCAGCCUUCGGUGGCGCGAUAGUGAAAACGUUCUCAACAAUGACACGCAAAACGUGUGCUCCGUUGAAUGGAGUUUAUCAUG [A20C A52U C93U C95A C96A U109A C125U], the “polymerase ribozyme fitness (log ratio)” value was at most -4.2.
Take GGAUCUUCUCGAUCUAACAAAAAAGACAAAUCUGCCACAAAGCUUGAGAGCAUCUUUGGAUGCAGAGGCGGCAGCCUUGGGUGGCGCGAUAGCGCCAACGUUCUCAACUAUGACACGCAAAACGCGUGCUCCGUUGAAUGGAGUUUAUCAUG [C57U C79G]: the “polymerase ribozyme fitness (log ratio)” value is -3.67.
On to GGAUCUUCUCGAUCUAACAAAAAAGACAAAUCUGCCACAAAGCUUGAGAGCAUCUUCGGAUGCAGAGGCGGCCGCCUUCGGUGGCGCGAUGGCGCCAACGUUCUCAACUAUGACAUGCAAAACGCGUGCUCCGUUGAAUGGAGUUUAUCAUG [A73C A91G C116U], for which the “polymerase ribozyme fitness (log ratio)” value is at most -4.2.
Take GGAUCUUCUCGAUCUAACAAAAAAGACAAAUCUGCCACAAAGCUUGAGAGCAUCUUCGGAUGCAGAGGCGGCAGCCUUCGGUGGUGCGAUAGCGCCAACGUUCUCAACUAUGACACGCAAAACGCGCGCUCCGUUGAAUGGAGUAUAUCAUG [C85U U127C U145A]: the “polymerase ribozyme fitness (log ratio)” value was -3.58.
In the case of GGAUCUUCUCGAUCUAACAAAAAAGACAAAUCUGCCACAAAGCUUGAGAGCAUCAUCGGAUACAGAGGGGACAGCCUUCGGUGGCGCGAUAGCGCCAACGUUCUCAACUAUGACACGCAAAACGCGUGCUCCGUUGAAUGGAGUUUAUCAUG [U55A G62A C69G G71A], the “polymerase ribozyme fitness (log ratio)” value is at most -4.2.
For GGAUCUUCUCGAUCUAACAAAAAAGACAAAUCUGCCAAAAAGCUUGAGAGCAUCUUCGGAUGCAGAGGCGGCCGGCUUCGGUGGCGCGAUAGCGCCAACGUUCUCAACUAUGACACGCACAACGCGUGCUCCGUUGAAUGGAGUUUAUCAUG [C38A A73C C75G A120C], the “polymerase ribozyme fitness (log ratio)” value was at most -4.2.
The value for GGAUCUUCUCGAUCUAACAAAAAAGACAAAUCUGCCACAAAGCUUGAGAGCAUCUUCGGAUGCAGAGGCGGCAGCCUUCGCUGGCGCGAUAGCGCCAACGUUCUCAACUAUGACACACCAAACGCGUGCUCCGUUGAAUGGAGUUUAUCAUG [G81C G117A A119C] was 0.184; that for GGAUCUUCUCGAUCUAACAAAAAAGACAAAUCUGCCACAAAGCUUGACAGCAUCUUCGGAUGCAGAGGCGGCAGCAUUCGGUGGCGCGAGAGCGCCAACGUUCUCAACUAUGACACGCAAAACGCGUGCGCCGUUGAAUGGAGUUUAUCAUG [G48C C76A U90G U130G] was at most -4.2.
GGAUCUUCUCGAUCUAACAAAAAAGACAAAUCUGCCACAAAGCUUGAGAGCAUCUUCGGAUGCAGAGGCGGCAGCCGUCGGAGGCGCGAUAGCGCCAACGUUCUCAACUCUGACACGCAAAACGCGUGCUCCGUUAUUUGGAGUUUAUCAUG [U77G U82A A110C G136A A137U A138U]: the “polymerase ribozyme fitness (log ratio)” value is at most -4.2.
Consider GGAUCUUCUCGAUCGAACAAAAAAGACAAAUCUGCCACAAAGCUUGAGAGCAUCUUCGGAUGCAGAGGCGGCAGCCUUCGGUGGCGCGAUAGCGCCAACGUUCUCAACUAUGACACGCAAAACGCGUGCUCAGUUGAAUGGAGUUUAUCAUG [U15G C132A], for which the “polymerase ribozyme fitness (log ratio)” value was -2.26.
The value for GGAUCUUCUCGAUCUAACAAAAAAUACAAAUCUGCCACAAAGCUUGAGAGCAUCUUCGGAUGCAGAGGCGGCAGCCUUCGGUGGGGCGAUAGCGCCAACGUUCUCAACUAUGACACGCAAAACGCGUGCUCCGUUGAAUGGAGUUUAUCAUG [G25U C85G] was -3.79; that for GGAUCUUCUCGAUCUAACAAAAAAGACAAAUCUGCCAUAAAGCUUGAGUGCAUCUUCGGAGGCAGAGGCGGCAGCCUUCGGUUGCGCGAUAGCGCCAACGUUCUCAACUAUGACACGCAAAACGCGUGCUCCCUUGAAUGGCGUUUAUCAUG [C38U A49U U61G G83U G133C A142C] was at most -4.2; that for GGAUCUUCUCGAUCUAACAAAAAAGACAAAUCUGCCACAAAGCUUGAGAGCAUCUUCGGAUGCAGAGGCGGCAGCCUUCGGUGGCGCGAUAGCGCAAACGUUCUCAACUAUGACUCGCAAAACGCGUGCUCCGUUGAAUGGAGUUUCUCAUG [C96A A115U A147C] was -3.48.
In the case of GGAUCUUCUCGAUCUAACAAAAAAGACAAGUCUGCCACCAAGCUUGAGAGCAUCGUCGGAUGCAGAGGCGGCAGCCUUCGGCGGCGCGAUAGCGCCAACGUUCUCAACUAUGACACGCAAAACGCGUGCUCCGUUUAAUGGAGUUUAUCAUG [A30G A39C U55G U82C G136U], the “polymerase ribozyme fitness (log ratio)” value is at most -4.2.
For GGAUCUUCUCGAUCUAACAAAAAAGACAAAUCUGCCACAAAGCUUGAGAGCAUCUUCCGAUGCAGAGGCGGCAGCCUUCCGUGGCGCGAUAGCGUCAACGUUCUCAACUAUGACACGCAAAACGCGUGCUCCGUUGAAUGGAGUUUAUCAUG [G58C G80C C95U], the “polymerase ribozyme fitness (log ratio)” value was at most -4.2.
